Measured values published in patent US20250121087A1 (INTOCELL, published 2025).
Where a chain is given by its changes, count along the chain named. Names may count otherwise.

T1: Human 4IgB7-H3 (Y-Biologics Inc.) (human, UniProt Q5ZPR3 29-466, limits assumed)
T1 construct: 4Ig isoform
T1 sequence (looked up): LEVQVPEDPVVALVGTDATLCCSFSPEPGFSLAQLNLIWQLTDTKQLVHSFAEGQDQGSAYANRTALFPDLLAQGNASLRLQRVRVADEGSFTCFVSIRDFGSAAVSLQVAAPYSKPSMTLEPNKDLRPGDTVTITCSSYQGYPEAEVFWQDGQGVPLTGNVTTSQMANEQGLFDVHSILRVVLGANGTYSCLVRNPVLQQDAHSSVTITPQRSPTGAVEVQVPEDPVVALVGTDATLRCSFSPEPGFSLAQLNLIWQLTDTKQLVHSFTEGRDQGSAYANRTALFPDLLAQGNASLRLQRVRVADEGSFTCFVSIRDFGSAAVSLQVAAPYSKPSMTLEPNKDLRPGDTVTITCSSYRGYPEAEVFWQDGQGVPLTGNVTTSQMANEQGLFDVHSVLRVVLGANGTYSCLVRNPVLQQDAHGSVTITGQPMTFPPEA

T2: Mouse B7-H3 (Sino biological Inc.) (mouse, UniProt Q8VE98 29-244, limits assumed)
T2 sequence (looked up): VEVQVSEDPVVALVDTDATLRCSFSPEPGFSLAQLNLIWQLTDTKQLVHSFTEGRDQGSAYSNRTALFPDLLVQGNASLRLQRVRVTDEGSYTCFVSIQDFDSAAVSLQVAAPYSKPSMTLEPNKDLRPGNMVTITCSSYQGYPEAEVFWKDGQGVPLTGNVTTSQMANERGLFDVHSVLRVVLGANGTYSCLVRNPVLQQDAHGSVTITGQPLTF

T3: Human 2IgB7-H3 (Acrobiosystems) (human, UniProt Q5ZPR3-2 29-245, limits assumed)
T3 construct: 2Ig isoform (the short splice form of the same UniProt entry)
T3 sequence (looked up): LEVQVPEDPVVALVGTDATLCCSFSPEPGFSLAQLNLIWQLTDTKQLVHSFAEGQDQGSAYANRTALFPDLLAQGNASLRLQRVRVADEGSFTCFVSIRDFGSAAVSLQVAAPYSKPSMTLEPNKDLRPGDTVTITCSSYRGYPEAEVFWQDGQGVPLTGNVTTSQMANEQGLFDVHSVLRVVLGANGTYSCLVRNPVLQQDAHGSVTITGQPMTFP

T4: human B7-H3 (Y-Biologics Inc.) (human, UniProt Q5ZPR3 29-466)
T4 chain: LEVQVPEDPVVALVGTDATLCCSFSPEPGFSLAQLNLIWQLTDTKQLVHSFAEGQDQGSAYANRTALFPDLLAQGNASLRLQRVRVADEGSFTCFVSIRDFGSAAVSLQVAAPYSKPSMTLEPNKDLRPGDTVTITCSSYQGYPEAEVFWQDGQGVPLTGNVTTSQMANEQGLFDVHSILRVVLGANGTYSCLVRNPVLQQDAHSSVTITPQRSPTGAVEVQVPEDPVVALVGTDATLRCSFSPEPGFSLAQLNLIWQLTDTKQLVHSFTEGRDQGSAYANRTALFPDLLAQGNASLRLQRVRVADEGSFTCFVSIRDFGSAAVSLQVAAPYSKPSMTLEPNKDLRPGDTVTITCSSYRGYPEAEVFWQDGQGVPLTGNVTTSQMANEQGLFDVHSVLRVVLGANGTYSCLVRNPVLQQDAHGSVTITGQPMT

B1: AB9 (SC0041, CD276-m8524), control anti-B7-H3 antibody (antibody, human IgG1, V domains shown)
VH: QVQLQQSGAEVKKPGSSVKVSCKASGGTFSSYAISWVRQAPGQGLEWMGGIIPILGIANYAQKFQGRVTITADESTSTAYMELSSLRSEDTAVYYCARGGSGSYHMDVWGKGTTVTVSS
VL: EIVLTQSPATLSLSPGERATLSCRASQSVSSYLAWYQQKPGQAPRLLIYDASNRATGIPARFSGSGSGTDFTLTISSLEPEDFAVYYCQQRSNWPPRITFGQGTRLEIKR
notes: Control antibody produced by the applicants; Human IgG1, Kappa-T2S
B2: AB2 (SA2107, CD276-040F10) (antibody, human IgG1, V domains shown)
VH: QVQLVESGAEVKKPGASVKLSCKASGYTFSSYWMHWVRQAPGQRLEWMGEINPGNGHTNYNEKFKSRVTITVDKSASTAYMELSSLRSEDTAVYYCVADPRRPKVPTALFVYWGQGTLVTVSS
VL: DIQMTQSPSSVSASVGDRVTISCRASQGIGTWLAWYQQKPGKAPRLLIYAASSLDSGVPSRFSASGSGTDFTLTISSLQPEDFATYYCQQAINFPITFGQGTRLEIK
notes: Whole human IgG
B3: AB2.1 (SA2107.01, CD276-040F10_IgG1_A1C) (antibody, V domains shown)
VH: B2 VH
VL: DIQMTQSPSSVSASVGDRVTISCRASQGIGTWLAWYQQKPGKAPRLLIYAASSLDSGVPSRFSASGSGTDFTLTISSLQPEDFATYYCQQAINFPITFGQGTRLEIKR
notes: Tested unconjugated; also called SA2107 A121C
B4: AB3 (SA2103, CD276-039C05) (antibody, human IgG1, V domains shown)
VH: QVQLVESGAEVKKPGSSVKVSCKASGGTFSSYAISWVRQAPGQGLEWMGRIIPILGIANYAQKFQGRVTITADKSTSTAYMELSSLRSEDTAVYYCANGGDSSSWYTFDYWGQGTLITVSS
VL: DIQMTQSPSTLSASVGDKLTLTCRASQSISRWLAWYQQKPGKAPKLLIYKASYLQTGVPSRFSGSGTGTEFTLTISSLQPDDFATYYCQQYNTFPLTFAGGTKVEIK
notes: Whole human IgG
B5: AB4 (SA2545, CD276-039C05_LS_001E10) (antibody, human IgG1, V domains shown)
VH: B4 VH
VL: DIQMTQSPSTLSASVGDRVNITCRASQTINSWLAWYQQKPGKAPKLLIYKASYLQTGVPSRFSGSGAGTEFTLTISSLQPDDFATYYCQQYNSYSLTFGGGTKVEIK
notes: Whole human IgG; also called CD276-39C05-LS-001E10
B6: AB5 (SA2563, CD276-039C05_LS_002A11) (antibody, human IgG1, V domains shown)
VH: B4 VH
VL: B5 VL with V19L, N20T, T28N, A67S, S76T, T85S, N92D, Y94N, S95P
notes: Whole human IgG; also called CD276-39C05_LS_002A11
B7: AB8 (SA2579, CD276-039C05_LS_002H07) (antibody, human IgG1, V domains shown)
VH: B4 VH
VL: DIQMTQSPSTLSASVGDRVTITCRASQSIDNWLAWYQQKPGKAPKLLIYKASSLQSGVPSRFSGSGSGTEFTLTISSLQPDDFASYYCQQYDSNPLTFGGGTKVEIK
notes: Whole human IgG; also called CD276-39C05-LS-002H07
B8: AB6 (SA2566, CD276-039C05_LS_002B07) (antibody, human IgG1, V domains shown)
VH: B4 VH
VL: DIQMTQSPSSLSASVGDRVTITCRASQGISSYLAWYQQKPGKAPKLLIYAASTLQSGVPSRFSGSGSGTDFTLTISSLQPEDFATYYCQQYYSFPLTFGGGTKVEIK
notes: Whole human IgG; also called CD276-39C05-LS-002B07
B9: AB7 (SA2571, CD276-039C05_LS_002D03) (antibody, human IgG1, V domains shown)
VH: B4 VH
VL: DIQMTQSPSTLSASVGDRVTITCRASETISSWLAWYQQKPGKAPKLLIYKASSLQSGVPSRFSGSGSGTEFTLTISSLQPDDFATYYCQQYYSYPITFGQGTRLEIK
notes: Whole human IgG; also called CD276-39C05_LS_002D03

Target: T1, Human 4IgB7-H3 (Y-Biologics Inc.)
Experiment: SPR (Biacore 8K), antibody captured on anti-human Fc, antigen as analyte, 1:1 fit
Experimental: (§1) A Biacore 8K (GE Life science) instrument was used to measure the binding kinetics about several B7-H3 variants (analyte) binding to various mAbs (ligands). Antibodies were captured onto the immobilized anti-human Fc antibody (GE Life science). […] For binding kinetic measurements, the HBS-EP+ was used for running buffer (10 mM Hepes, pH7.4, 150 mM NaCl, 3 mM EDTA, 0.05% polysorbate20). […] After capturing ligand, various B7-H3 antigens were analyzed for 120 s and the dissociation was monitored for 600 s at a flow rate of 30 ul/min. […] For the kinetic analysis, 5 points of 2-fold diluted analytes were flown over the captured ligand ranging from 20 nM of human 4Ig B7-H3 (Y-Biologics Inc.), 320 nM of human 2Ig B7-H3 (Acrobiosystems), 40 nM of cynomolgus monkey B7-H3 (Sino biological Inc.), and 160 nM of mouse B7-H3 (Sino biological Inc.). Kinetic information was calculated by fitting data to a 1:1 binding model using Biacore Insight Evaluation software (GE Life Science) to determine ka (association constant), kd (dissociation constant), and KD (equilibrium dissociation constant).

Kd [nM]	koff [s⁻¹]	kon [M⁻¹ s⁻¹]	Binder
0.518	0.000617	1.19e+06	B1
0.446	0.000199	446000	B2
1.06	0.00047	442000	B3

Target: T2, Mouse B7-H3 (Sino biological Inc.)
Experiment: as above
Experimental: as §1

Kd [nM]	koff [s⁻¹]	kon [M⁻¹ s⁻¹]	Binder
49	0.0294	600000	B1
47.3	0.0193	408000	B2
42.4	0.0178	420000	B3

Target: T5, Cyno B7-H3 (Sino biological Inc.) (cynomolgus monkey)
T5 construct: also called cynomolgus monkey B7-H3
Experiment: as above
Experimental: as §1

Kd [nM]	koff [s⁻¹]	kon [M⁻¹ s⁻¹]	Binder
0.278	0.000242	871000	B1
0.919	0.000442	481000	B2
1.05	0.000504	480000	B3

Target: T3, Human 2IgB7-H3 (Acrobiosystems)
Experiment: as above
Experimental: as §1

Kd [nM]	koff [s⁻¹]	kon [M⁻¹ s⁻¹]	Binder
208	0.107	515000	B1
25	0.00515	206000	B2
21.6	0.00469	217000	B3

Target: T4, human B7-H3 (Y-Biologics Inc.)
Experiment: BLI (Octet QKe), antibody on AHC biosensor, human B7-H3 as analyte, 1:1 global fit

Kd [nM]	koff [s⁻¹]	kon [M⁻¹ s⁻¹]	Binder
0.3	0.0002	500000	B1
0.05	4e-05	700000	B2
0.05	2e-05	500000	B3
0.04	3e-05	600000	B4
0.06	7e-05	1e+06	B5
0.1	0.0002	1e+06	B6
0.3	0.0003	900000	B7
0.2	0.0006	3e+06	B8
0.3	0.0005	2e+06	B9
